Assay results from US20240270821A1, “GIP/GLP1/GCG TRI-RECEPTOR AGONISTS AND USES THEREOF” (priority 2023, published 2024).
Starred links: 1 amine or outer side, 2 acyl side, 3 side chain; linkers in the order of their positions; H or OH if unused. Non-standard residues stand in square brackets, D forms with d. Groups on a side chain read outwards from the residue. No end group written: not given here. *: point of attachment. C18 diacid = O=C(O)CCCCCCCCCCCCCCCCC(=O)*; γGlu = O=C(O)[C@H](CCC(=O)[*:2])N[*:1]; αMeL = CC(C)C[C@](C)(N)C(=O)O; Dab = NCC[C@H](N)C(=O)O; AEEA = NCCOCCOCC(=O)O; Aib = CC(C)(N)C(=O)O

T1: human GIP receptor (human) (UniProt P48546)
T1 sequence (looked up): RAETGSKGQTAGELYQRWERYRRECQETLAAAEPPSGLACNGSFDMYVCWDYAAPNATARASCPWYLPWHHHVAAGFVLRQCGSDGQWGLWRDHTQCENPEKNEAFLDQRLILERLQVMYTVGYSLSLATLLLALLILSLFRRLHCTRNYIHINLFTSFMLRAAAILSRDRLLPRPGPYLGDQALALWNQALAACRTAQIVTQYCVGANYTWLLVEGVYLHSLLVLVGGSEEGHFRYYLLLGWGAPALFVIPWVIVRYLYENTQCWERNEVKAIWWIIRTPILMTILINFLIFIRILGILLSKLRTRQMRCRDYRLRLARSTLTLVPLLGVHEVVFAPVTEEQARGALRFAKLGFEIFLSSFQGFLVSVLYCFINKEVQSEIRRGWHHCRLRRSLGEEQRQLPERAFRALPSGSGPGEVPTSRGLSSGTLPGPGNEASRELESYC

B1: Example 150 (peptide)
chain: YXQGTFTSDFSQXLDKKAQXAFIEYLLEGGPSSGAPPPSGS
modifications: Aib, αMeL; lipidated Lys; C-terminal amide; synthetic construct; SITE 2: note = 2-Aminoisobutyric Acid; SITE 13: note = alpha-methyl-leucine; SITE 17: note = Lysine is chemically modified through conjugation of the epsilon-amino group of the Lysine side chain with (2-[2-(2-Amino-ethoxy)-ethoxy]-acetyl)-(gamma-Glu)-CO-(CH2) 16-CO2H; SITE 20: n
B2: Example 147 (peptide)
chain: YXQGTFTSDFSKXLDKKAQXAFIEYLLEGGESSGAPPPSGS
modifications: Aib, αMeL, (AEEA)2-γGlu-C18 diacid lysine acylation, C-terminal amide; synthetic construct; SITE 2: note = 2-Aminoisobutyric Acid; SITE 13: note = alpha-methyl-leucine; SITE 17: note = Lysine is chemically modified through conjugation of the epsilon-amino group of the Lysine side chain with (2-[2-(2-Amino-ethoxy)-ethoxy]-acetyl)2-(gamma-Glu)-CO-(CH2 )16-CO2H; SITE 20:
B3: Example 152 (peptide)
chain: YXQGTFTSDFSXXLDKKAQXAFIEYLLAGGPSSGEPPPEGS
modifications: Aib, Orn, αMeL; acylated Lys (AEEA-γGlu-C18 diacid); C-terminal amide; synthetic construct; SITE 2: note = 2-Aminoisobutyric Acid; SITE 12: note = L-ornithine; SITE 13: note = alpha-methyl-leucine; SITE 17: note = Lysine is chemically modified through conjugation of the epsilon-amino group of the Lysine side chain with (2-[2-(2-Amino-ethoxy)-ethoxy]-acetyl)-(gamma-Glu)
B4: Example 131 (peptide)
chain: YXQGTFTSDFSXXLDKKAQXAFIEYLLEGGPSSGEPPPSGS
modifications: synthetic construct; SITE 2: note = 2-Aminoisobutyric Acid; SITE 12: note = L-ornithine; SITE 13: note = alpha-methyl-leucine; SITE 17: note = Lysine is chemically modified through conjugation of the epsilon-amino group of the Lysine side chain with (2-[2-(2-Amino-ethoxy)-ethoxy]-acetyl)-(gamma-Glu)
B5: Example 170 (peptide)
chain: YXQGTFTSDFSXXLDKKAQXAFIEWLLEGGHSSGAPPPSGS
modifications: Lys acylated with AEEA-γGlu-C18 diacid; non-natural residues; C-amide; synthetic construct; SITE 2: note = 2-Aminoisobutyric Acid; SITE 12: note = L-ornithine; SITE 13: note = alpha-methyl-leucine; SITE 17: note = Lysine is chemically modified through conjugation of the epsilon-amino group of the Lysine side chain with (2-[2-(2-Amino-ethoxy)-ethoxy]-acetyl)-(gamma-Glu)
B6: Example 145 (peptide)
chain: YXQGTFTSDFSXXLDKKAQXAFIEYLLEGGESSGAPPPSGS
modifications: synthetic construct; SITE 2: note = 2-Aminoisobutyric Acid; SITE 12: note = L-ornithine; SITE 13: note = alpha-methyl-leucine; SITE 17: note = Lysine is chemically modified through conjugation of the epsilon-amino group of the Lysine side chain with (2-[2-(2-Amino-ethoxy)-ethoxy]-acetyl)-(gamma-Glu)
B7: Example 161 (peptide)
chain: YXQGTFTSDFSXXLDKKAQXAFIEYLLEGGESSGAPPPGGS
modifications: non-natural residues, lysine acylation, C-terminal amide; synthetic construct; SITE 2: note = 2-Aminoisobutyric Acid; SITE 12: note = L-ornithine; SITE 13: note = alpha-methyl-leucine; SITE 17: note = Lysine is chemically modified through conjugation of the epsilon-amino group of the Lysine side chain with (2-[2-(2-Amino-ethoxy)-ethoxy]-acetyl)-(gamma-Glu)
B8: Example 160 (peptide)
chain: YXQGTFTSDFSXXLDKKAQXAFIEYLLEGGPSSGAPPPEGT
modifications: Aib, Orn, αMeL, acylated Lys, amide; synthetic construct; SITE 2: note = 2-Aminoisobutyric Acid; SITE 12: note = L-ornithine; SITE 13: note = alpha-methyl-leucine; SITE 17: note = Lysine is chemically modified through conjugation of the epsilon-amino group of the Lysine side chain with (2-[2-(2-Amino-ethoxy)-ethoxy]-acetyl)-(gamma-Glu)
B9: Example 159 (peptide)
chain: YXQGTFTSDFSXXLDKKAQXAFIEYLLEGGPSSGAPPPGGQ
modifications: non-natural residues; lipidated Lys; C-terminal amide; synthetic construct; SITE 2: note = 2-Aminoisobutyric Acid; SITE 12: note = L-ornithine; SITE 13: note = alpha-methyl-leucine; SITE 17: note = Lysine is chemically modified through conjugation of the epsilon-amino group of the Lysine side chain with (2-[2-(2-Amino-ethoxy)-ethoxy]-acetyl)-(gamma-Glu)
B10: Example 47 (peptide)
chain: YXQGTFTSDFSKXLDKKAQXAFIEYLLEGAPSSGAPPPSEG
modifications: synthetic construct; SITE 2: note = 2-Aminoisobutyric Acid; SITE 13: note = alpha-methyl-leucine; SITE 17: note = Lysine is chemically modified through conjugation of the epsilon-amino group of the Lysine side chain with (2-[2-(2-Amino-ethoxy)-ethoxy]-acetyl)-(gamma-Glu)-CO-(CH2) 18-CO2H; SITE 20: n
B11: Example 25 (peptide)
chain: YXQGTFTSDFSKXLDKKAQXAFIEYLLAGGPSSGEPPPSEG
modifications: Aib, αMeL, acylated Lys, C-terminal amide; synthetic construct; SITE 2: note = 2-Aminoisobutyric Acid; SITE 13: note = alpha-methyl-leucine; SITE 17: note = Lysine is chemically modified through conjugation of the epsilon-amino group of the Lysine side chain with (2-[2-(2-Amino-ethoxy)-ethoxy]-acetyl)2-(gamma-Glu)-CO-(CH2 )16-CO2H; SITE 20:
B12: Example 144 (peptide)
chain: YXQGTFTSDFSRXLDKKAQXAFIEYLLEGGPSSGAPPPSGS
modifications: synthetic construct; SITE 2: note = 2-Aminoisobutyric Acid; SITE 13: note = alpha-methyl-leucine; SITE 17: note = Lysine is chemically modified through conjugation of the epsilon-amino group of the Lysine side chain with (2-[2-(2-Amino-ethoxy)-ethoxy]-acetyl)2-(gamma-Glu)-CO-(CH2 )16-CO2H; SITE 20:
B13: Example 133 (peptide)
chain: Y[Aib]QGTFTSDFS[Dab][αMeL]LDKK([AEEA-γGlu-C18 diacid])AQ[Aib]AFIEYLLE[Aib]GPSSGAPPPSGS-NH2
modifications: ends and bridges not checked

Assays:
Test in all cases: cell-based or functional assay
[1] = target: hGLP-1R (Homo sapiens, UniProt P43220)
hGLP-1R, sequence (P43220 24-463): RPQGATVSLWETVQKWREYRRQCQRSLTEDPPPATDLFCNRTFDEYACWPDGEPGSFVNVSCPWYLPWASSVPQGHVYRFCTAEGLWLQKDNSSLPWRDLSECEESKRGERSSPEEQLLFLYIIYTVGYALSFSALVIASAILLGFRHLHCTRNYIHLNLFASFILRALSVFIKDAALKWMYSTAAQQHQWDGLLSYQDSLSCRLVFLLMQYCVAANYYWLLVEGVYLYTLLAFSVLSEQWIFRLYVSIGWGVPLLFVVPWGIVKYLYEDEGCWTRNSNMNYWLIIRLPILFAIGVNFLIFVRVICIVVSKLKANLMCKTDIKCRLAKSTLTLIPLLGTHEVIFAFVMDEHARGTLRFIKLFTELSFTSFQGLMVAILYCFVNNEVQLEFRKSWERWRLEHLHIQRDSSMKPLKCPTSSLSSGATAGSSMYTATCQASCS

[2] = target: human glucagon receptor (human) (UniProt P47871)
human glucagon receptor (human), sequence (P47871 26-477): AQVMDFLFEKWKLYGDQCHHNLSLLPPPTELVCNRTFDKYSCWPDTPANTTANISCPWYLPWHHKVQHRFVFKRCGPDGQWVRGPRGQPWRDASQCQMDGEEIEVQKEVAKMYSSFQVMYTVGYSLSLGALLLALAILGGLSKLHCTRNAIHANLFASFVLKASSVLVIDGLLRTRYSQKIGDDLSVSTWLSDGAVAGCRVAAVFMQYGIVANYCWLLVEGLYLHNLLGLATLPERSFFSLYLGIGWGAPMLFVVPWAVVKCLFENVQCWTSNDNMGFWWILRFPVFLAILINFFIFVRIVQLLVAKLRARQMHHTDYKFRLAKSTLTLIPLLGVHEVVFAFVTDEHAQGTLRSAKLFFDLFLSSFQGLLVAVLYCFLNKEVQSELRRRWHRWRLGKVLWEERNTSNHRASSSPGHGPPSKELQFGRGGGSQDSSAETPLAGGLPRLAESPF

[3] = target: T1, human GIP receptor (human)

Binder	Relative cAMP EC50, nM (0.1% casein) [1] [nM]	cAMP Rel EC50, nM (1% HSA) [1] [nM]	Relative cAMP EC50, nM (0.1% casein) [2] [nM]	cAMP Rel EC50, nM (1% HSA) [2] [nM]	Relative cAMP EC50, nM (0.1% casein) [3] [nM]	cAMP Rel EC50, nM (1% HSA) [3] [nM]	Relative cAMP EC50 [1] [nM]	cAMP Rel EC50, nM (in the presence of 1% HSA) [1] [nM]	Relative cAMP EC50 [2] [nM]	cAMP Rel EC50, nM (in the presence of 1% HSA) [2] [nM]	Relative cAMP EC50 [3] [nM]	cAMP Rel EC50, nM (in the presence of 1% HSA) [3] [nM]	cAMP Rel EC50 (in the presence of 1% HSA) [1] [nM]	cAMP Rel EC50 (in the presence of 1% HSA) [2] [nM]	cAMP Rel EC50 (in the presence of 1% HSA) [3] [nM]
B1	2.63	463	5.37	1920	0.346	50.6	–	–	–	–	–	–	–	–	–
B2	4.26	964	4.39	877	0.343	108	–	–	–	–	–	–	–	–	–
B3	4.03	491	6.91	1090	0.259	23.2	–	–	–	–	–	–	–	–	–
B4	–	–	–	–	–	–	5.51	984	2.64	976	0.416	91.8	–	–	–
B5	4.11	361	5.29	1800	0.401	43.5	–	–	–	–	–	–	–	–	–
B6	–	–	–	–	–	–	4.26	1480	3.14	693	0.539	108	–	–	–
B7	5.22	963	4.83	902	0.555	87.3	–	–	–	–	–	–	–	–	–
B8	5.39	482	4.32	479	0.354	44.4	–	–	–	–	–	–	–	–	–
B9	4.15	588	6.89	475	0.343	49.7	–	–	–	–	–	–	–	–	–
B10	–	–	–	–	–	–	3.4	–	5.61	–	0.388	–	–	–	–
B11	–	–	–	–	–	–	3.34	–	6.8	–	0.128	–	520	939	19.8
B12	–	–	–	–	–	–	4.02	990	14.8	2600	0.23	46.2	–	–	–
B13	–	–	–	–	–	–	3.6	1180	1.64	642	0.15	23.1	–	–	–
